Tests used:
MKK7 [1] = target: T1, MKK7 (Homo sapiens, UniProt O14733); conditions: when max. activated; cited from earlier work
T1 construct: purchased Upstate Biotech 14-366
T1 sequence (O14733 1-419): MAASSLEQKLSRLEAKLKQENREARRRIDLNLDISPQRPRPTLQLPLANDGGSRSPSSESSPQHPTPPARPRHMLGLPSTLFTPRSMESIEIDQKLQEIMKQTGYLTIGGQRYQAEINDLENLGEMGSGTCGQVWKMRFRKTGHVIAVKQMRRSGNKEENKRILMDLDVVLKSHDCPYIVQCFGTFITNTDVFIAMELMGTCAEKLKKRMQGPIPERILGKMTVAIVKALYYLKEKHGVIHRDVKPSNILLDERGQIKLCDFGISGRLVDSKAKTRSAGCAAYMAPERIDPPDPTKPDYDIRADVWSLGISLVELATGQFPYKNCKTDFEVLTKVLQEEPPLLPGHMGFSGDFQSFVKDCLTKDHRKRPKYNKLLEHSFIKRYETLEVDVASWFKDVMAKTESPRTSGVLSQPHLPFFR

MKK7 [2] = target: T1, MKK7; test: FP measurements of MKK7 activity, time course, optimized conditions (Example 8); assay type: biochemical
Protocol: Fluorescence Polarization measurements of MKK7 activity (time course): In this experiment the assay conditions have been optimized. The reactions were stopped with EDTA. […] The following reagents have been used (explanations later on): […] The enzyme reactions were performed in Eppendorf reaction tubes at RT. Aliquots of 20 μl were withdrawn from the reactions at different time points and mixed with 10 μl STOP solution.

MKK7 [3] = target: T1, MKK7; test: FP measurements of MKK7 activity, time course (Example 7); assay type: biochemical; conditions: 100 μM P1°
Protocol: Fluorescence Polarization measurements of MKK7 activity (time course): In this experiment, the time course has been investigated at P1^∘ substrate concentrations of 100 μM. The reactions were stopped with EDTA. The following reagents have been used (the compositions of the buffers and specifications of the reagents are explained in more detail later on): […] After addition of MKK7, the enzyme reactions were performed in Nunc chambers at RT. The samples were continuously measured at different time points by Fluorescence polarization.

- Fluorescence Polarization (MKK7 [2]; NEB ab in STOP sol., MKK7 0.04 μM, 0 h): 147.2 mP
- Fluorescence Polarization (MKK7 [2]; NEB ab in STOP sol., MKK7 0.04 μM, 0.5 h): 141.5 mP
- Fluorescence Polarization (MKK7 [2]; NEB ab in STOP sol., MKK7 0.04 μM, 1 h): 140.2 mP
- Fluorescence Polarization (MKK7 [2]; NEB ab in STOP sol., MKK7 0.04 μM, 1.5 h): 135.8 mP
- Fluorescence Polarization (MKK7 [2]; NEB ab in STOP sol., MKK7 0.04 μM, 2 h): 134.2 mP
- Fluorescence Polarization (MKK7 [2]; NEB ab in STOP sol., MKK7 0.04 μM, 3 h): 138.2 mP
- Fluorescence Polarization (MKK7 [2]; NEB ab in STOP sol., MKK7 0.08 μM, 0 h): 143.3 mP
- Fluorescence Polarization (MKK7 [2]; NEB ab in STOP sol., MKK7 0.08 μM, 0.5 h): 139.1 mP
- Fluorescence Polarization (MKK7 [2]; NEB ab in STOP sol., MKK7 0.08 μM, 1 h): 133.6 mP
- Fluorescence Polarization (MKK7 [2]; NEB ab in STOP sol., MKK7 0.08 μM, 1.5 h): 122.1 mP
- Fluorescence Polarization (MKK7 [2]; NEB ab in STOP sol., MKK7 0.08 μM, 2 h): 115.8 mP
- Fluorescence Polarization (MKK7 [2]; NEB ab in STOP sol., MKK7 0.08 μM, 3 h): 125.0 mP
- Fluorescence Polarization (MKK7 [2]; NEB ab in STOP sol., MKK7 0.2 μM, 0 h): 148.2 mP
- Fluorescence Polarization (MKK7 [2]; NEB ab in STOP sol., MKK7 0.2 μM, 0.5 h): 130.2 mP
- Fluorescence Polarization (MKK7 [2]; NEB ab in STOP sol., MKK7 0.2 μM, 1 h): 114.0 mP
- Fluorescence Polarization (MKK7 [2]; NEB ab in STOP sol., MKK7 0.2 μM, 1.5 h): 102.8 mP
- Fluorescence Polarization (MKK7 [2]; NEB ab in STOP sol., MKK7 0.2 μM, 2 h): 99.2 mP
- Fluorescence Polarization (MKK7 [2]; NEB ab in STOP sol., MKK7 0.2 μM, 3 h): 119.4 mP
- Fluorescence Polarization (MKK7 [2]; NEB ab in reaction, MKK7 0.04 μM, 0 h): 150.0 mP
- Fluorescence Polarization (MKK7 [2]; NEB ab in reaction, MKK7 0.04 μM, 0.5 h): 128.5 mP
- Fluorescence Polarization (MKK7 [2]; NEB ab in reaction, MKK7 0.04 μM, 1 h): 125.7 mP
- Fluorescence Polarization (MKK7 [2]; NEB ab in reaction, MKK7 0.04 μM, 1.5 h): 112.9 mP
- Fluorescence Polarization (MKK7 [2]; NEB ab in reaction, MKK7 0.04 μM, 2 h): 109.7 mP
- Fluorescence Polarization (MKK7 [2]; NEB ab in reaction, MKK7 0.04 μM, 3 h): 78.6 mP
- Fluorescence Polarization (MKK7 [2]; NEB ab in reaction, MKK7 0.08 μM, 0 h): 138.5 mP
- Fluorescence Polarization (MKK7 [2]; NEB ab in reaction, MKK7 0.08 μM, 0.5 h): 122.5 mP
- Fluorescence Polarization (MKK7 [2]; NEB ab in reaction, MKK7 0.08 μM, 1 h): 105.9 mP
- Fluorescence Polarization (MKK7 [2]; NEB ab in reaction, MKK7 0.08 μM, 1.5 h): 86.4 mP
- Fluorescence Polarization (MKK7 [2]; NEB ab in reaction, MKK7 0.08 μM, 2 h): 84.5 mP
- Fluorescence Polarization (MKK7 [2]; NEB ab in reaction, MKK7 0.08 μM, 3 h): 65.0 mP
- Fluorescence Polarization (MKK7 [2]; NEB ab in reaction, MKK7 0.2 μM, 0 h): 137.2 mP
- Fluorescence Polarization (MKK7 [2]; NEB ab in reaction, MKK7 0.2 μM, 0.5 h): 101.4 mP
- Fluorescence Polarization (MKK7 [2]; NEB ab in reaction, MKK7 0.2 μM, 1 h): 83.1 mP
- Fluorescence Polarization (MKK7 [2]; NEB ab in reaction, MKK7 0.2 μM, 1.5 h): 78.1 mP
- Fluorescence Polarization (MKK7 [2]; NEB ab in reaction, MKK7 0.2 μM, 2 h): 72.1 mP
- Fluorescence Polarization (MKK7 [2]; NEB ab in reaction, MKK7 0.2 μM, 3 h): 59.4 mP
- Fluorescence Polarization (MKK7 [3]; MKK7 0.005 μM, 0 h): 131.5 mP
- Fluorescence Polarization (MKK7 [3]; MKK7 0.005 μM, 0.5 h): 137.4 mP
- Fluorescence Polarization (MKK7 [3]; MKK7 0.005 μM, 1 h): 136.8 mP
- Fluorescence Polarization (MKK7 [3]; MKK7 0.005 μM, 1.5 h): 136.9 mP
- Fluorescence Polarization (MKK7 [3]; MKK7 0.005 μM, 3 h): 138.1 mP
- Fluorescence Polarization (MKK7 [3]; MKK7 0.02 μM, 0 h): 135.4 mP
- Fluorescence Polarization (MKK7 [3]; MKK7 0.02 μM, 0.5 h): 140.3 mP
- Fluorescence Polarization (MKK7 [3]; MKK7 0.02 μM, 1 h): 140.9 mP
- Fluorescence Polarization (MKK7 [3]; MKK7 0.02 μM, 1.5 h): 139.7 mP
- Fluorescence Polarization (MKK7 [3]; MKK7 0.02 μM, 3 h): 140.0 mP
- Fluorescence Polarization (MKK7 [3]; MKK7 0.08 μM, 0 h): 133.5 mP
- Fluorescence Polarization (MKK7 [3]; MKK7 0.08 μM, 0.5 h): 137.6 mP
- Fluorescence Polarization (MKK7 [3]; MKK7 0.08 μM, 1 h): 135.8 mP
- Fluorescence Polarization (MKK7 [3]; MKK7 0.08 μM, 1.5 h): 128.4 mP
- Fluorescence Polarization (MKK7 [3]; MKK7 0.08 μM, 3 h): 115.2 mP
- Fluorescence Polarization (MKK7 [3]; MKK7 0.2 μM, 0 h): 135.3 mP
- Fluorescence Polarization (MKK7 [3]; MKK7 0.2 μM, 0.5 h): 132.1 mP
- Fluorescence Polarization (MKK7 [3]; MKK7 0.2 μM, 1 h): 121.9 mP
- Fluorescence Polarization (MKK7 [3]; MKK7 0.2 μM, 1.5 h): 113.8 mP
- Fluorescence Polarization (MKK7 [3]; MKK7 0.2 μM, 3 h): 104.7 mP
- Fluorescence Polarization (MKK7 [3]; MKK7 0.5 μM, 0 h): 135.3 mP
- Fluorescence Polarization (MKK7 [3]; MKK7 0.5 μM, 0.5 h): 125.5 mP
- Fluorescence Polarization (MKK7 [3]; MKK7 0.5 μM, 1 h): 115.3 mP
- Fluorescence Polarization (MKK7 [3]; MKK7 0.5 μM, 1.5 h): 108.8 mP
- Fluorescence Polarization (MKK7 [3]; MKK7 0.5 μM, 3 h): 106.6 mP
- Fluorescence Polarization (MKK7 [3]; MKK7 1.0 μM, 0 h): 135.7 mP
- Fluorescence Polarization (MKK7 [3]; MKK7 1.0 μM, 0.5 h): 119.6 mP
- Fluorescence Polarization (MKK7 [3]; MKK7 1.0 μM, 1 h): 112.2 mP
- Fluorescence Polarization (MKK7 [3]; MKK7 1.0 μM, 1.5 h): 105.3 mP
- Fluorescence Polarization (MKK7 [3]; MKK7 1.0 μM, 3 h): 108.4 mP
B1: MKK7: MKK7 kinase, supplier Upstate Biotech cat. no. 14-366 (protein, UniProt O14733 2-419, looked up)
Dual specificity …: AASSLEQKLSRLEAKLKQENREARRRIDLNLDISPQRPRPTLQLPLANDGGSRSPSSESSPQHPTPPARPRHMLGLPSTLFTPRSMESIEIDQKLQEIMKQTGYLTIGGQRYQAEINDLENLGEMGSGTCGQVWKMRFRKTGHVIAVKQMRRSGNKEENKRILMDLDVVLKSHDCPYIVQCFGTFITNTDVFIAMELMGTCAEKLKKRMQGPIPERILGKMTVAIVKALYYLKEKHGVIHRDVKPSNILLDERGQIKLCDFGISGRLVDSKAKTRSAGCAAYMAPERIDPPDPTKPDYDIRADVWSLGISLVELATGQFPYKNCKTDFEVLTKVLQEEPPLLPGHMGFSGDFQSFVKDCLTKDHRKRPKYNKLLEHSFIKRYETLEVDVASWFKDVMAKTESPRTSGVLSQPHLPFFR
- Specific activity (MKK7 [1]): Approximately 20 Units/mg
